The source of these data is patent publication US20180127483A1 (CHILDREN S MEDICAL CENTER, published 2018).

This assay addresses T1, recombinant human Flt-1/Fc chimera (R&D System 321-FL) (human, UniProt P17948 27-758).
T1 construct: extracellular domain; Bought from R&D Systems; also called VEGF-R1 extracellular domain Ig fusion; full-length VEGF-Receptor 1 extracellular domain; Fc part of the bought chimera not given
The assay can be described thus: solution equilibrium: 10 pM human VEGF165 incubated overnight with 0.05-1000 pM binder, unbound VEGF165 measured by ELISA, curve fit. As to the method: FIG. 4. Binding affinity analysis of VEGF-binding proteins. In brief, a fixed concentration of human VEGF₁₆₅ (10 pM) was incubated overnight at room temperature with varying concentrations (0.05 pM to 1000 pM) of VEGF binding proteins. 20 hours later, concentration of unbound VEGF₁₆₅ was measured by ELISA. Binding curves were fitted using Prizm software.
(An ELISA detects its analyte on a solid surface through an enzyme-linked reagent.)

T1 sequence (P17948 27-758, change not shown): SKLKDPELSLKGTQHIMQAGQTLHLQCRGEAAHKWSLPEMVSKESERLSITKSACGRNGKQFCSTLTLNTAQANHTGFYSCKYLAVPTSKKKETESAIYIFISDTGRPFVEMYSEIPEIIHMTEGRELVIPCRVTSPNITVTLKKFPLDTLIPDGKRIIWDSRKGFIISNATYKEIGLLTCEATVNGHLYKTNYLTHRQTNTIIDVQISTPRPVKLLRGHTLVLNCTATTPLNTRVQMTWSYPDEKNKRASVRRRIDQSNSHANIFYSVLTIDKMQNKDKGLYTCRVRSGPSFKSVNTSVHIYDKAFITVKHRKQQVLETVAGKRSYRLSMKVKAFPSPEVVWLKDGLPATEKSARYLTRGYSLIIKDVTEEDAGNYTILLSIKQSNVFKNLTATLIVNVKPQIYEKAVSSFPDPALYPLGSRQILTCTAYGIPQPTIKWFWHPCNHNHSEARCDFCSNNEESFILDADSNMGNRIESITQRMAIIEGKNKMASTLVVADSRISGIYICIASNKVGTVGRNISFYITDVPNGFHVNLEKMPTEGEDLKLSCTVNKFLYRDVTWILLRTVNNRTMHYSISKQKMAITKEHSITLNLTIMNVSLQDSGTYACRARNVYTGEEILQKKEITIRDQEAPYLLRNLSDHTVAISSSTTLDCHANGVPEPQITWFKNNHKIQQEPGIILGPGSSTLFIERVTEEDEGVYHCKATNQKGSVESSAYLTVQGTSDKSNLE

B1: human VEGF165 (ligand, UniProt P15692-4 27-191, looked up)
chain: APMAEGGGQNHHEVVKFMDVYQRSYCHPIETLVDIFQEYPDEIEYIFKPSCVPLMRCGGCCNDEGLECVPTEESNITMQIMRIKPHQGQHIGEMSFLQHNKCECRPKKDRARQENPCGPCSERRKHLFVQDPQTCKCSCKNTDSRCKARQLELNERTCRCDKPRR
One may read the Kd as the equilibrium constant for the complex coming apart. For the molecule B1, the Kd came to 0.0259 nM.
